{"source": "patent US20230027739A1", "about": "“ANTIGEN-BINDING AND ANTIGEN D[…]” (Entrada Therapeutics, Inc., priority 2021, published 2023)", "biological_target": "KRas in human cancer cell lines with KRas mutations (HCT-116, SW480, LS180, LS174T) (human), P01116", "test": "cell-based or functional assay", "data": [{"binder": "K19-Cys-EEV12 (designed binder, modifications not checked) MHHHHHHENLYFQGDLGKKLLEAARAGQDDEVRILMANGADVNASDRWGWTPLHLAAWWGHLEIVEVLLKRGADVSAADLHGQSPLHLAAMVGHLEIVEVLLKYGADVNAKDTMGATPLHLAARSGHLEIVEELLKNGADMNAQDKFGKTTFDISTDNGNEDLAEILQKLC", "values": [{"measurement": "IC50 of cell viability (CellTiter-Glo, 72 h) on KRas mutant cell lines", "result": "2 to 8", "unit": "µM"}]}]}
